Experiment [1] has as its target T1, TLT-1 18-188 relipidated in 20:80 PS:PC vesicles (human, UniProt Q86YW5 18-188).
T1 sequence: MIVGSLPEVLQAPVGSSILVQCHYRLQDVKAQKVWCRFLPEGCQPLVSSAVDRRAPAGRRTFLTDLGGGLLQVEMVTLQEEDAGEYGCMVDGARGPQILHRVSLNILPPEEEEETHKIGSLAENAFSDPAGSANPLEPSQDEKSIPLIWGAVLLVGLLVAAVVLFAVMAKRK
The experiment is described as follows: cell-based or functional assay.

For experiment [2], the target named is T2, TLT-1 receptor on the surface of activated human platelets (human, UniProt Q86YW5 16-311).
T2 sequence: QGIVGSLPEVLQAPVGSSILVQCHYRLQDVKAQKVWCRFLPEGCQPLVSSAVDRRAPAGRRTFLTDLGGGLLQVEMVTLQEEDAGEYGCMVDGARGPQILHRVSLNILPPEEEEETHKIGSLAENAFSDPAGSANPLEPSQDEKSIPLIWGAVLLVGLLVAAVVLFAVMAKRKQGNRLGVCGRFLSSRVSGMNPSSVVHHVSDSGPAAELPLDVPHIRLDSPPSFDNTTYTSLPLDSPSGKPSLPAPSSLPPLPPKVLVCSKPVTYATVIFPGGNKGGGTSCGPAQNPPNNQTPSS
The experiment can be described thus: cell-based or functional assay.

In experiment [3] the target is T3, TLT-1 18-188 relipidated in 20:80 PS:PC vesicles (human) (UniProt Q86YW5).
T3 sequence: T1 sequence

Experiment [4] addresses T4, TLT-1 receptor on the surface of activated human platelets (human) (UniProt Q86YW5).
T4 sequence: T2 sequence

We go through six molecules from US20120178908A1 (Novo Nordisk, published 2012).

B1: Fab 0052-VH-CH1-L4a-TF;LC-HPC4 (other)
VH-CH1-linker-TF: QVQLQQSGAEPMKPGASVKISCKATGYTFSSHWIEWIKQRPGHGLEWIGEILPGSGNTNYNEKFKGKATFTADTSSNTAYMQLSSLTSEDSAVYCCARGYYGLNYDWYFDVWGAGTTVTVSSASTKGPSVFPLAPCSRSTSESTAALGCLVKDYFPEPVTVSWNSGALTSGVHTFPAVLQSSGLYSLSSVVTVPSSSLGTKTYTCNVDHKPSNTKVDKRVESKGSGGGGSGGGGSGGGGSSGTTNTVAAYNLTWKSTNFKTILEWEPKPVNQVYTVQISTKSGDWKSKCFYTTDTECDLTDEIVKDVKQTYLARVFSYPAGNVESTGSAGEPLYENSPEFTPYLETNLGQPTIQSFEQVGTKVNVTVEDERTLVRRNNTFLSLRDVFGKDLIYTLYYWKSSSSGKKTAKTNTNEFLIDVDKGENYCFSVQAVIPSRTVNRKSTDSPVECMGQEKGEFRE
light chain-HPC4: DIQMTQTTSSLSASLGDRVTISCRASQDISNYLNWYQQKPDGTVKLLIFYTSRLHSGVPSRFSGSGSGTDYSLTISNLEPEDIATYYCQQDTKLPYTFGGGTKLEMKRTVAAPSVFIFPPSDEQLKSGTASVVCLLNNFYPREAKVQWKVDNALQSGNSQESVTEQDSKDSTYSLSSTLTLSKADYEKHKVYACEVTHQGLSSPVTKSFNRGECEDQVDPRLIDGK
For the molecule B1, in experiment [1], the “FVII-mediated FXa generation % Activity lipidated TLT-1” value came out at 13% and the “FVIIa-mediated FXa generation % Activity lipidated TLT-1” value was 29%. In experiment [2], the “FVII-mediated FXa generation % Activity activated plts (n 1)” value came to 10% and the “FVIIa-mediated FXa generation % Activity activated plts (n 1)” value was determined as 25%.

B2: Fab 0012-VH-CH1-L0-TF;LC-HPC4 (protein)
VH-CH1-TF, no linker: EVKLLESGGGLVQPGGSLKLSCAASGFDFSRYWMTWVRQAPGKGLEWIGEINPDSSTINYTPSLKDKFIISRDNAKNTLYLQMSEVRSEDTALYYCASGVFTSWGQGTLVTVSAASTKGPSVFPLAPCSRSTSESTAALGCLVKDYFPEPVTVSWNSGALTSGVHTFPAVLQSSGLYSLSSVVTVPSSSLGTKTYTCNVDHKPSNTKVDKRVESKSGTTNTVAAYNLTWKSTNFKTILEWEPKPVNQVYTVQISTKSGDWKSKCFYTTDTECDLTDEIVKDVKQTYLARVFSYPAGNVESTGSAGEPLYENSPEFTPYLETNLGQPTIQSFEQVGTKVNVTVEDERTLVRRNNTFLSLRDVFGKDLIYTLYYWKSSSSGKKTAKTNTNEFLIDVDKGENYCFSVQAVIPSRTVNRKSTDSPVECMGQEKGEFRE
light chain-HPC4: DVVMTQTPLSLPVSLGDQASISCRSSQSLVHRNGNTYFHWCLQKPGQSPKLLIYKVSNRFSGVPDRFSGSGSGTDFTLKISRVEAEDLGVYFCSQSTHVPYTFGGGTKLEIKRTVAAPSVFIFPPSDEQLKSGTASVVCLLNNFYPREAKVQWKVDNALQSGNSQESVTEQDSKDSTYSLSSTLTLSKADYEKHKVYACEVTHQGLSSPVTKSFNRGECEDQVDPRLIDGK
In experiment [3], B2 gave an FVII-mediated FXa generation % Activity lipidated TLT-1 of 98% and an FVIIa-mediated FXa generation % Activity lipidated TLT-1 of 106%. Also, in experiment [4], the FVII-mediated FXa generation % Activity activated plts (n 4) was found to be 71% and the FVIIa-mediated FXa generation % Activity activated plts (n 4) worked out at 80%.

B3: Fab 0012-TF-L4b-VH-CH1;LC-HPC4 (protein)
TF-linker-VH-CH1: SGTTNTVAAYNLTWKSTNFKTILEWEPKPVNQVYTVQISTKSGDWKSKCFYTTDTECDLTDEIVKDVKQTYLARVFSYPAGNVESTGSAGEPLYENSPEFTPYLETNLGQPTIQSFEQVGTKVNVTVEDERTLVRRNNTFLSLRDVFGKDLIYTLYYWKSSSSGKKTAKTNTNEFLIDVDKGENYCFSVQAVIPSRTVNRKSTDSPVECMGQEKGEFREGGGGSGGGGSGGGGSGSEVKLLESGGGLVQPGGSLKLSCAASGFDFSRYWMTWVRQAPGKGLEWIGEINPDSSTINYTPSLKDKFIISRDNAKNTLYLQMSEVRSEDTALYYCASGVFTSWGQGTLVTVSAASTKGPSVFPLAPCSRSTSESTAALGCLVKDYFPEPVTVSWNSGALTSGVHTFPAVLQSSGLYSLSSVVTVPSSSLGTKTYTCNVDHKPSNTKVDKRVESK
light chain-HPC4: B2 light chain-HPC4
Turning to B3, in experiment [3], the FVII-mediated FXa generation % Activity lipidated TLT-1 was 0% and the FVIIa-mediated FXa generation % Activity lipidated TLT-1 worked out at 0%. Further, in experiment [4], the FVII-mediated FXa generation % Activity activated plts (n 1) was found to be 5% and the FVIIa-mediated FXa generation % Activity activated plts (n 2) stood at 5%.

B4: Fab 0012-VH-CH1-L10-TF;LC-HPC4 (protein)
VH-CH1-linker-TF: EVKLLESGGGLVQPGGSLKLSCAASGFDFSRYWMTWVRQAPGKGLEWIGEINPDSSTINYTPSLKDKFIISRDNAKNTLYLQMSEVRSEDTALYYCASGVFTSWGQGTLVTVSAASTKGPSVFPLAPCSRSTSESTAALGCLVKDYFPEPVTVSWNSGALTSGVHTFPAVLQSSGLYSLSSVVTVPSSSLGTKTYTCNVDHKPSNTKVDKRVESKYGPPSPSSPAPEFLGGSGTTNTVAAYNLTWKSTNFKTILEWEPKPVNQVYTVQISTKSGDWKSKCFYTTDTECDLTDEIVKDVKQTYLARVFSYPAGNVESTGSAGEPLYENSPEFTPYLETNLGQPTIQSFEQVGTKVNVTVEDERTLVRRNNTFLSLRDVFGKDLIYTLYYWKSSSSGKKTAKTNTNEFLIDVDKGENYCFSVQAVIPSRTVNRKSTDSPVECMGQEKGEFRE
light chain-HPC4: B2 light chain-HPC4
Consider B4, for which, in experiment [3], the FVII-mediated FXa generation % Activity lipidated TLT-1 worked out at 87% and the FVIIa-mediated FXa generation % Activity lipidated TLT-1 turned out to be 93%. Further, in experiment [4], the FVII-mediated FXa generation % Activity activated plts (n 2) worked out at 78% and the FVIIa-mediated FXa generation % Activity activated plts (n 2) was 81%.

B5: hTF.1-219 (soluble tissue factor) (receptor)
chain: SGTTNTVAAYNLTWKSTNFKTILEWEPKPVNQVYTVQISTKSGDWKSKCFYTTDTECDLTDEIVKDVKQTYLARVFSYPAGNVESTGSAGEPLYENSPEFTPYLETNLGQPTIQSFEQVGTKVNVTVEDERTLVRRNNTFLSLRDVFGKDLIYTLYYWKSSSSGKKTAKTNTNEFLIDVDKGENYCFSVQAVIPSRTVNRKSTDSPVECMGQEKGEFRE
As to B5, in experiment [1], the “FVII-mediated FXa generation % Activity lipidated TLT-1” value is 1% and the “FVIIa-mediated FXa generation % Activity lipidated TLT-1” value stood at 13%. Moreover, in experiment [2], the “FVII-mediated FXa generation % Activity activated plts (n 1)” value was 2% and the “FVIIa-mediated FXa generation % Activity activated plts (n 1)” value stood at 4%.

B6: Fab 0012-LC-L1-TF;VH-CH1-HPC4 (protein)
light chain-linker-TF: DVVMTQTPLSLPVSLGDQASISCRSSQSLVHRNGNTYFHWCLQKPGQSPKLLIYKVSNRFSGVPDRFSGSGSGTDFTLKISRVEAEDLGVYFCSQSTHVPYTFGGGTKLEIKRTVAAPSVFIFPPSDEQLKSGTASVVCLLNNFYPREAKVQWKVDNALQSGNSQESVTEQDSKDSTYSLSSTLTLSKADYEKHKVYACEVTHQGLSSPVTKSFNRGECGSSGTTNTVAAYNLTWKSTNFKTILEWEPKPVNQVYTVQISTKSGDWKSKCFYTTDTECDLTDEIVKDVKQTYLARVFSYPAGNVESTGSAGEPLYENSPEFTPYLETNLGQPTIQSFEQVGTKVNVTVEDERTLVRRNNTFLSLRDVFGKDLIYTLYYWKSSSSGKKTAKTNTNEFLIDVDKGENYCFSVQAVIPSRTVNRKSTDSPVECMGQEKGEFRE
VH-CH1-HPC4: EVKLLESGGGLVQPGGSLKLSCAASGFDFSRYWMTWVRQAPGKGLEWIGEINPDSSTINYTPSLKDKFIISRDNAKNTLYLQMSEVRSEDTALYYCASGVFTSWGQGTLVTVSAASTKGPSVFPLAPCSRSTSESTAALGCLVKDYFPEPVTVSWNSGALTSGVHTFPAVLQSSGLYSLSSVVTVPSSSLGTKTYTCNVDHKPSNTKVDKRVESKEDQVDPRLIDGK
In the case of B6, in experiment [3], the FVII-mediated FXa generation % Activity lipidated TLT-1 is 97% and the FVIIa-mediated FXa generation % Activity lipidated TLT-1 was determined as 101%. Besides, in experiment [4], the FVII-mediated FXa generation % Activity activated plts (n 4) was found to be 111% and the FVIIa-mediated FXa generation % Activity activated plts (n 1) stood at 125%.
